Experimental data published in publication PMC9402538 (2022).
The star is where a group is joined. FITC = O=C1OC2(c3ccc(O)cc3Oc3cc(O)ccc32)c2ccc(NC(=S)*)cc21; Cbz = O=C(OCc1ccccc1)*

T1: APC (303–739) (UniProt P25054 303-739)
T1 chain: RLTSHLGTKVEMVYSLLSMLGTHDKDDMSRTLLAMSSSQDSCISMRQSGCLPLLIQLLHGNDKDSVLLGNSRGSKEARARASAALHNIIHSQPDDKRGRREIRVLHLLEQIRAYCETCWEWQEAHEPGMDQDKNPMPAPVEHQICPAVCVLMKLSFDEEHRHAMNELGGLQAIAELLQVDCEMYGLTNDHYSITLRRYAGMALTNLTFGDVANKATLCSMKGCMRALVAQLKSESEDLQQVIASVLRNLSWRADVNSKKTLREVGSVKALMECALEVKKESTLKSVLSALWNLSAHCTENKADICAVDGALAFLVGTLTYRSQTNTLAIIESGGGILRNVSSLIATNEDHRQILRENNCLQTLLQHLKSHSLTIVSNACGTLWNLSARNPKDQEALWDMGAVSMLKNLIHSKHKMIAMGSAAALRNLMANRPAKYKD


Target: T1, APC (303–739)
Assay: ITC

Ka [M⁻¹] | Binder
1.73e+06 | Ac-GGGGEQLAINELISDGK(FITC)-NH2 [tracer 1 (Ac–GGGGEQLAINELISDGK[FITC]–NH2)]
1.29e+07 | Cbz-AGESLYEK(FITC)-NH2 [tracer 7 (Z–AGESLYEK[FITC]–NH2)]
